# Assay results reported in IntAct's records for PubMed 28965847.
# B1: Suppressor of fused homolog (Homo sapiens), Q9UMX1 (parent)
# chain: MAELRPSGAPGPTAPPAPGPTAPPAFASLFPPGLHAIYGECRRLYPDQPNPLQVTAIVKYWLGGPDPLDYVSMYRNVGSPSANIPEHWHYISFGLSDLYGDNRVHEFTGTDGPSGFGFELTFRLKRETGESAPPTWPAELMQGLARYVFQSENTFCSGDHVSWHSPLDNSESRIQHMLLTEDPQMQPVQTPFGVVTFLQIVGVCTEELHSAQQWNGQGILELLRTVPIAGGPWLITDMRRGETIFEIDPHLQERVDKGIETDGSNLSGVSAKCAWDDLSRPPEDDEDSRSICIGTQPRRLSGKDTEQIRETLRRGLEINSKPVLPPINPQRQNGLAHDRAPSRKDSLESDSSTAIIPHELIRTRQLESVHLKFNQESGALIPLCLRGRLLHGRHFTYKSITGDMAITFVSTGVEGAFATEEHPYAAHGPWLQILLTEEFVEKMLEDLEDLTSPEEFKLPKEYSWPEKKLKVSILPDVVFDSPLH
# Variants of: B1
# Details: with gli3_mouse Gli3, Q61602
# Chain of gli3_mouse Gli3, Q61602 (Q61602 whole entry): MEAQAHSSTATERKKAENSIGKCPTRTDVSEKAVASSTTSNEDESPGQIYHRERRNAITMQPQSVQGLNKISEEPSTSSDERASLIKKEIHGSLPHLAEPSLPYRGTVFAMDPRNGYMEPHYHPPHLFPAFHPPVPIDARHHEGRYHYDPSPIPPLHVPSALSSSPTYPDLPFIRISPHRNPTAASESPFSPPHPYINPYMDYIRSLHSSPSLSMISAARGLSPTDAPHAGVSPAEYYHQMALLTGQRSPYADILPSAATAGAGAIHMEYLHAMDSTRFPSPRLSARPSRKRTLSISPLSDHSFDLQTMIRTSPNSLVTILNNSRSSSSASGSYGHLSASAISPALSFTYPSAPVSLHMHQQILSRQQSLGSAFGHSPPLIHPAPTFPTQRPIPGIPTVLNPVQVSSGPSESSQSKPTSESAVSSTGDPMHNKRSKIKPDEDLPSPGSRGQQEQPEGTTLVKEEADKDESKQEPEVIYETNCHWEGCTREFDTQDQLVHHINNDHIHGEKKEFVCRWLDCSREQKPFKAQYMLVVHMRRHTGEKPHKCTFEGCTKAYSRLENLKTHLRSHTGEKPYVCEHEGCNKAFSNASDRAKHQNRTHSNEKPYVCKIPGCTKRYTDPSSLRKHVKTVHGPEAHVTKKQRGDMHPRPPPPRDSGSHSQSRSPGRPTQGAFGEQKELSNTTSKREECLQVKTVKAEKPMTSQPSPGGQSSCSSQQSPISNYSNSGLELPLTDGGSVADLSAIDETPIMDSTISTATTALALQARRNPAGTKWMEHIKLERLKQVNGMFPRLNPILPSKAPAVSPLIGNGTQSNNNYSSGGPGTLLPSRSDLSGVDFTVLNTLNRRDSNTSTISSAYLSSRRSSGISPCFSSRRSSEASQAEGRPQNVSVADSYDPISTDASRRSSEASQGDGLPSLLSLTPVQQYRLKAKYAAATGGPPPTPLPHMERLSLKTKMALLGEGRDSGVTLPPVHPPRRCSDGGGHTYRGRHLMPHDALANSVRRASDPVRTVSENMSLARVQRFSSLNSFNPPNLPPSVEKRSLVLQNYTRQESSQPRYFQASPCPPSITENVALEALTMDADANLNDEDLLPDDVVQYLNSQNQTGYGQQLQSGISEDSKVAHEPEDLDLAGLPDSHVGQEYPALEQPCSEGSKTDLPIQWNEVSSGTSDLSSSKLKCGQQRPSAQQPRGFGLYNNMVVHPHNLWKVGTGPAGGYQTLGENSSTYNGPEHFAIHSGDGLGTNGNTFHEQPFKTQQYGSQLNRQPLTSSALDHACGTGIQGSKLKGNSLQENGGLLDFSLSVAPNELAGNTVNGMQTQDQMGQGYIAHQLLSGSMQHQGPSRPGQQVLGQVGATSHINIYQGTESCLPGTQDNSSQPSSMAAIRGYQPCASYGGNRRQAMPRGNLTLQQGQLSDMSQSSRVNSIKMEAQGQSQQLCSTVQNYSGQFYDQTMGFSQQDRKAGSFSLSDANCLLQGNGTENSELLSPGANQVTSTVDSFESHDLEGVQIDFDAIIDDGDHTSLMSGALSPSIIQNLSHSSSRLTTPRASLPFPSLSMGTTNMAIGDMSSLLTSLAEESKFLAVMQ
row,effect of a mutation on the interaction,Variant
1,disrupting interaction strength,I406T
2,decreasing interaction strength,H176R
